Experimental data: patent US20240374745A1

Tests used:
CTLA-4-hFc = experiment: BLI, immobilized CTLA-4-hFc; untreated sample before LRP1 depletion
PD-1-hFc (human) = experiment: BLI, immobilized PD-1-hFc; untreated sample before LRP1 depletion
PD-1-hFc (human), sequence (chain, as listed by the source limits assumed): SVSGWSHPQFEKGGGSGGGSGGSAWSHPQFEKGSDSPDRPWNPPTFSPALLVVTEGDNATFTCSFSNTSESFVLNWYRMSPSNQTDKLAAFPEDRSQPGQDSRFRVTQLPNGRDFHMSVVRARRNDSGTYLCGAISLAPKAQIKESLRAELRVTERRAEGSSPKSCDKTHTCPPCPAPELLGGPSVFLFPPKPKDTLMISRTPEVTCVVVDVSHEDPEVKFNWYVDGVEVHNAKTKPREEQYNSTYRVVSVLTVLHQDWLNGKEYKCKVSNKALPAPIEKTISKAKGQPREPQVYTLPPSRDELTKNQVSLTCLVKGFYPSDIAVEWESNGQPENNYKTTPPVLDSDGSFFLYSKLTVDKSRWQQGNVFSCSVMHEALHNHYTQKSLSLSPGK

CTLA-4-hFc, sequence (chain, as listed by the source limits assumed): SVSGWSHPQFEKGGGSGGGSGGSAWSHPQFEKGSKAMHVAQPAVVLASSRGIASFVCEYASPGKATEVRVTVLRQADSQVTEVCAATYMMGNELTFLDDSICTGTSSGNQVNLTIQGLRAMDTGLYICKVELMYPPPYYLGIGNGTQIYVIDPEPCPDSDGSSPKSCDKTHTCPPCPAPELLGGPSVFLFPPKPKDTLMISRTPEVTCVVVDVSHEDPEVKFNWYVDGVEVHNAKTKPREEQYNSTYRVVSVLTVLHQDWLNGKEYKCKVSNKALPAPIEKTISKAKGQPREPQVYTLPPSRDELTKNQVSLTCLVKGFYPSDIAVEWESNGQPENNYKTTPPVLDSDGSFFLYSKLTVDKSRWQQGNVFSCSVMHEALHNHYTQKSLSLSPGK

Row | percent of the maximum binding defined by thermolysin activation (CTLA-4-hFc) | percent of the maximum binding defined by thermolysin activation (PD-1-hFc (human)) | Substance
1 | 25% |  | A2M-Ipilimumab, untreated (native conformation)
2 |  | 25% | A2M-Nivolumab, untreated (native conformation)
